B1: chicken leptin (ligand, UniProt O42164 19-163, looked up)
chain: VPCQIFQDDTKTLIKTIVTRINDISHTSVSAKQRVTGLDFIPGLHPILSLSKMDQTLAVYQQVLTSLPSQNVLQIANDLENLRDLLHLLAFSKSCSLPQTSGLQKPESLDGVLEASLYSTEVVALSRLQGSLQDILQQLDISPEC
notes: also called chLeptin; ChLeptin
B2: recombinant human leptin receptor leptin-binding domain (LBD), amino acids 428-635 of the human leptin receptor (receptor)
chain: MAIDVNINISCETDGYLTKMTCRWSTSTIQSLAESTLQLRYHRSSLYCSDIPSIHPISEPKDCYLQSDGFYECIFQPIFLLSGYTMWIRINHSLGSLDSPPTCVLPDSVVKPLPPSSVKAEITINIGLLKISWEKPVFPENNLQFQIRYGLSGKEVQWKMYEVYDAKSKSVSLPVPDLCAVYAVQVRCKRLDGLGYWSNWSNPAYTVVMD
notes: also called hLBD; human LBD
B3: recombinant chicken leptin receptor binding domain (chLBD), amino acids 419-624 of the chicken leptin receptor (receptor)
chain: MAVDVNINIKCETDGYLTKMTCRWSANPNALLLGSSLQLRYHRSKIYCSNFPSTPPESEVKECHFQRNHSYECTFQPVFLLSGYTMWIELKHSLGTLESSPTCVVPADVVKPLPPSNIKAEITRNDGLLNVSWTNPVFTNDDLKFQIRYAVNREELTWELYEVLSVPTRSAVIEVQLCVEYIVQIRCRALDGLGYWSNWSRSAYAAVKD
notes: also called CLBD
B4: ovine leptin (fraction SP) (ligand, UniProt Q28603 1-146, looked up)
chain: VPIRKVQDDTKTLIKTIVTRINDISHTQSVSSKQRVTGLDFIPGLHPLLSLSKMDQTLAIYQQILASLPSRNVIQISNDLENLRDLLHLLAASKSCPLPQVRALESLESLGVVLEASLYSTEVVALSRLQGSLQDMLRQLDLSPGC

Columns and labels:
[1] = biological target: B2; assay: SPR
[2] = biological target: long form of human leptin receptor, stably transfected in BAF/3 cells (cell homogenate) (human) (UniProt P48357); assay: competition with 125I-hLEP, homogenate of BAF/3 cells with long-form human leptin receptor
[3] = biological target: B3; assay: inhibition of binding of 125I-hLep to chLBD by unlabeled leptin; the curve only falls to about 66 % at the highest concentration shown (about 10^-4.2 M), the printed value lies beyond the range
Protocol: Binding Assays—Radiolabeled human ¹²⁵I-leptin served as a ligand, and other (human, ovine, and chicken) nonlabeled leptins served as competitors. The experiments were conducted using either recombinant LBD or homogenates of BAF/3 cells stably transfected with the long form of hLEP receptor. In the latter case, the cells were cultured in Dulbecco's modified Eagle's medium supplemented with 5% fetal calf serum in the presence of IL-3 to minimize leptin-receptor down-regulation until a concentration of 10⁶ cells/ml was reached. Then the cells were spun and stored at −70° C. […] Each tube contained 150 or 200 μl of reaction buffer in the case of the assay with the cells or recombinant LBD, respectively, 100 μl of ¹²⁵I-hLEP (100,000 cpm for cells or 180,000 cpm for binding domain assays), and 100 μl of different leptin solutions (providing 0-5000 ng/tube) in the reaction buffer, and the reaction was started by addition of 150 μl of cell homogenate or 100 μl of LBD (20 ng). The tubes were incubated for 24 h at room temperature. Then the leptin receptor complex was precipitated by adding 250 μl of 1% (w/v) bovine immunoglobulin and 500 μl of 20% (w/v) polyethylene glycol. After thorough mixing, the tubes were incubated for 20 min at 4° C. and centrifuged at 12,000×g for 15 min at 4° C. Then supernatant was carefully aspirated, and the precipitates were counted in a Kontron ?-counter. […]

recombinant human leptin [4] = biological target: T1, recombinant human leptin (human, UniProt P41159 22-167); assay: cell-based or functional assay
T1 sequence (P41159 22-167): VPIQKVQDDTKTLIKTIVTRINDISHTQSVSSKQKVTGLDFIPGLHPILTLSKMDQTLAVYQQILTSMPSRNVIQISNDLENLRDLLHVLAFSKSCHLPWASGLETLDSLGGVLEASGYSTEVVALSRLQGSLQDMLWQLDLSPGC

[5] = biological target: B4; assay: cell-based or functional assay
chicken leptin [6] = biological target: B1; assay: cell-based or functional assay
recombinant human leptin [7] = biological target: T1, recombinant human leptin; assay: cell-based or functional assay; remark: listed apart in the source
[8] = biological target: B4; assay: cell-based or functional assay; remark: listed apart in the source
recombinant human leptin [9] = biological target: T1, recombinant human leptin; assay: SPR, hLEP immobilized on CM5, LBD in flow
Protocol: Kinetic Measurements of LBD-hLEP Interactions—All experiments were performed at 25° C. using surface plasmon resonance (SPR) methodology. The kinetics and equilibrium constants for the interaction between hLEP and LBD were determined using the Biacore 3000 system (Uppsala, Sweden). hLEP was immobilized in a flow cell of a research-grade CM5 sensor chip using amine-coupling chemistry (Lofas, S. et al (1990) J. Chem. Soc. Chem. Commun. 21, 1526-1528). The immobilization steps were carried out at a flow rate of 10 μl/min in HBS-EP buffer. The surface was activated for 7 min with a mixture of N-hydroxysuccinimide (0.05 M) and N-ethyl-N′(3-dimethylaminopropyl)-carbodiimide hydrochloride (0.2 M). hLEP was injected at a concentration of 50 μg/ml in 10 mM acetate, pH 3.5, until the desired level (1000 resonance units) was achieved. Ethanolamine (1 M, pH 8.5) was injected for 7 min to block the remaining activated groups. A control surface was prepared by activating the carboxyl groups and then blocking the activated groups by ethanolamine as described. […] Regeneration of the surface after each interaction was performed by using a 10-μl pulse of 10 mM glycine buffer, pH 2. […]
SPR Determination of the Interaction between hLEP and LBD—The interactions of hLEP and LBD were analyzed by comparison with a theoretical model using Chi-square analysis.

recombinant human leptin [10] = biological target: T1, recombinant human leptin; assay: SPR
chicken leptin [11] = biological target: B1; assay: SPR
recombinant human leptin [12] = biological target: T1, recombinant human leptin; assay: Scatchard plot (bound/free against bound) of the binding of 125I-hLep to chLBD, inset
[13] = biological target: B4; assay: gel filtration of hormone:chLBD mixtures at various molar ratios, retention times printed over the peaks
[14] = biological target: B2; assay: competition of unlabeled leptin with 125I-human leptin for binding to soluble recombinant LBD, precipitation of the complex and counting
Protocol: (§1) The specific binding (%) in experiments performed with human, ovine, and chicken leptins and their mutants were, respectively, 7.3% in A, and 8.1% in B, and the nonspecific binding was respectively, 5.4 and 14%. All values for specific binding were normalized, and the solid lines and the IC₅₀ values were calculated using the PRIZMA curve-fitting program (Author, A. (1994) GraphPad Prism™, Version 2.0, GraphPad Software Inc., San Diego, Calif.).
(§2) Binding Assays—Radiolabeled human ¹²⁵I-leptin served as a ligand, and other (human, ovine, and chicken) nonlabeled leptins served as competitors. The experiments were conducted using either recombinant LBD or homogenates of BAF/3 cells stably transfected with the long form of hLEP receptor. In the latter case, the cells were cultured in Dulbecco's modified Eagle's medium supplemented with 5% fetal calf serum in the presence of IL-3 to minimize leptin-receptor down-regulation until a concentration of 10⁶ cells/ml was reached. Then the cells were spun and stored at −70° C. […] Then supernatant was carefully aspirated, and the precipitates were counted in a Kontron ?-counter.

[15] = biological target: T2, long form of human leptin receptor, stably transfected in BAF/3 cells (cell homogenate) (human, UniProt P48357 22-1165); assay: competition of unlabeled leptin with 125I-human leptin for binding to homogenate of BAF/3 cells transfected with the long form of human leptin receptor
T2 construct: whole, on cells; also called WT in BAF/3 cell homogenate; full-size membrane-embedded leptin receptor
T2 sequence (looked up): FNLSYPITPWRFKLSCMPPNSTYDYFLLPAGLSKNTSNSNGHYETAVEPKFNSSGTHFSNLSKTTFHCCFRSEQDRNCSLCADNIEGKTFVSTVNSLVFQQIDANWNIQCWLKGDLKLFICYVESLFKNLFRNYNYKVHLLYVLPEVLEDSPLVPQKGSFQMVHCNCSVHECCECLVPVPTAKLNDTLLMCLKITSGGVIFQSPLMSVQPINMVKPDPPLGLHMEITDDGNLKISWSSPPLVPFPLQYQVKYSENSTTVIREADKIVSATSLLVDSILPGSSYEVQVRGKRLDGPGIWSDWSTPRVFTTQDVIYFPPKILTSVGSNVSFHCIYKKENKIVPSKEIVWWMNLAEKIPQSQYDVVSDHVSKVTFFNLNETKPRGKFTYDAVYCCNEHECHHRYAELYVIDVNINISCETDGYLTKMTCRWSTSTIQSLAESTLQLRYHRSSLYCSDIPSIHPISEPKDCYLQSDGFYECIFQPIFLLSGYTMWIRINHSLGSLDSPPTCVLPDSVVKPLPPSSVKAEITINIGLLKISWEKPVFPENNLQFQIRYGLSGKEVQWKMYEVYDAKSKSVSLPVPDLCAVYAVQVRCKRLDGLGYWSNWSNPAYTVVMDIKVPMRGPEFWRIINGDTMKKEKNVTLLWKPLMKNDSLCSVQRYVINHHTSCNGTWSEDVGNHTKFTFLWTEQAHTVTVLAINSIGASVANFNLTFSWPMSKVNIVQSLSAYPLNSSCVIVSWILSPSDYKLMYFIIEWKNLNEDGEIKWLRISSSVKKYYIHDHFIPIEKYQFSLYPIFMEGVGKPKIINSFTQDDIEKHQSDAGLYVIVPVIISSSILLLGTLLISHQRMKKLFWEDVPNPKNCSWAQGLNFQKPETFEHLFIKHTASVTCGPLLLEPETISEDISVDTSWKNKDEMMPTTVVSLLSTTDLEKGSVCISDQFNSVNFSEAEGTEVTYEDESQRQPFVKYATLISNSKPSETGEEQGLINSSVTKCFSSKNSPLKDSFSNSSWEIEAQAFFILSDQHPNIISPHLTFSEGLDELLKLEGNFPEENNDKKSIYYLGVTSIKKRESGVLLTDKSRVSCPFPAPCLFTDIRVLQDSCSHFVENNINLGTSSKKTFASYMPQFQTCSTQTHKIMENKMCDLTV
Protocol: as §1, §2

B1
Kd [1]: 380 nM
koff [1]: 0.0052 s⁻¹
kon [1]: 13500 M⁻¹ s⁻¹
fold lower capacity to displace than hLEP [2]: 20 fold
IC50 [3]: 88 µM

B2
molar excess of LBD required to achieve 50% inhibition of leptin-stimulated proliferation of BAF/3 cells with the long form of human leptin receptor (recombinant human leptin [4]): 200 molar excess
molar excess of LBD required to achieve 50% inhibition of leptin-stimulated proliferation of BAF/3 cells with the long form of human leptin receptor [5]: 200 molar excess
molar excess of LBD required to achieve 50% inhibition of leptin-stimulated proliferation of BAF/3 cells with the long form of human leptin receptor (chicken leptin [6]): 600 molar excess
IC50 (read off the curve) (recombinant human leptin [7]): ~20 nM
IC50 (read off the curve) [8]: ~20 nM
complex half-life (recombinant human leptin [9]): 6.24 min

B3
Kd (recombinant human leptin [10]): 78.5 nM
koff (recombinant human leptin [10]): 0.0143 s⁻¹
kon (recombinant human leptin [10]): 183000 M⁻¹ s⁻¹
Kd (chicken leptin [11]): 1300 nM
koff (chicken leptin [11]): 0.076 s⁻¹
kon (chicken leptin [11]): 58300 M⁻¹ s⁻¹
Kd (recombinant human leptin [12]): 3.9 nM
binding result [13]: binds

B4
IC50 (read off the curve) [14]: ~8 nM
IC50 (read off the curve) [15]: ~600 pM

— patent publication US20050209137A1 (published 2005)
